Data: publication doi:10.1101/2023.04.03.535455 (bioRxiv, 2023)
Blank lines part the entries; values can stand above or below the binder they belong to.

How the values were obtained:
[1] = molecular target: T1, His-PI31 wild-type (human) (human), Q92530; assay: mass photometry; settings: remark: other sources report otherwise
T1 chain: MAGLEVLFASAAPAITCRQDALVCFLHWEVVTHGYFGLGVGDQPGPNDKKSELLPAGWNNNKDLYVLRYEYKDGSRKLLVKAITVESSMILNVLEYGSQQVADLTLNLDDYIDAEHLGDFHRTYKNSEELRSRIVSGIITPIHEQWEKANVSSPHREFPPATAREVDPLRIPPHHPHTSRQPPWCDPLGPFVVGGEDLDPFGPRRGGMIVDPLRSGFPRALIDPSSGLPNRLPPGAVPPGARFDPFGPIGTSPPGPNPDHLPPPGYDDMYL

[2] = molecular target: T2, recombinant wild-type human PI31 (Proteasome Inhibitor of 31,000 daltons) (human, UniProt Q92530 1-271); assay: cryo-EM structure
T2 sequence: T1 chain

stoichiometry N [1]: 2
B1: His-PI31 wild-type (human), Q92530 1-271 (natural protein)
chain: T1 chain

binding result [2]: binds
B2: β2 subunit of the bovine 20S proteasome (natural protein)
chain: TTIAGVVYKDGIVLGADTRATEGMVVADKNCSKIHFISPNIYCCGAGTAADTDMTTQLISSNLELHSLSTGRLPRVVTANRMLKQMLFRYQGYIGAALVLGGVDVTGPHLYSIYPHGSTDKLPYVTMGSGSLAAMAVFEDKFRPDMEEEEAKKLVSEAIAAGIFNDLGSGSNIDLCVISKSKLDFLRPYSVPNKKGTRFGRYRCEKGTNAVLTEKVTTLEIEVLEETVQTMDTS

binding result [2]: binds
B3: β5 subunit of the bovine 20S proteasome (natural protein)
chain: TTTLAFKFRHGVIVAADSRATAGAYIASQTVKKVIEINPYLLGTMAGGAADCSFWERLLARQCRIYELRNKERISVAAASKLLANMVYQYKGMGLSMGTMICGWDKRGPGLYYVDSEGNRISGATFSVGSGSVYAYGVMDRGYSYDLEVEEAYDLARRAIYQATYRDAYSGGSVSLYHVREDGWIRVSSDNVADLHDKYSGSTH
